{"source": "patent US20050123549A1", "about": "(IMMUNOGEN, published 2005)", "key": {"[1]": {"target": "T1, Muc1 mucin carrying the CA6 sialoglycotope (human, UniProt P15941 24-1255, sialylated O-linked carbohydrate carrying the CA6 epitope; positions not stated)", "T1 construct": "whole, on cells; Target of DS6 on CA6-positive human cell lines (flow cytometry) and in their lysates (dot blots, immunoprecipitation); also called CA6 antigen; DS6 antigen", "test": "flow cytometry on WISH cells, direct binding"}, "[2]": {"target": "T1, Muc1 mucin carrying the CA6 …", "test": "competition flow cytometry on WISH cells; competitor 2 nM biotin-muDS6, streptavidin-DTAF", "description": "(§1) To confirm that the huDS6 versions retains the affinity of muDS6, competitive binding experiments were conducted. […] In some cases, the experimentally measured apparent Kd can vary simply because of the secondary reagent used to indirectly detect binding."}, "[3]": {"target": "T1, Muc1 mucin carrying the CA6 …", "test": "flow cytometry on HeLa cells"}, "[4]": {"target": "T1, Muc1 mucin carrying the CA6 …", "test": "cell-based or functional assay"}, "[5]": {"target": "T1, Muc1 mucin carrying the CA6 …", "test": "flow cytometry on Caov-3 cells"}, "[6]": {"target": "T1, Muc1 mucin carrying the CA6 …", "test": "flow cytometry on WISH cells, detected with streptavidin-DTAF", "description": "as §1"}, "[7]": {"target": "T1, Muc1 mucin carrying the CA6 …", "test": "flow cytometry on WISH cells, detected with goat anti-mouse-FITC"}}, "data": [{"binder": "humanized DS6 antibody version 1.0 (antibody, human IgG1, V domains shown, also called huDS6 v1.0; v1.0) VH: QAQLQVSGAEVVKPGASVKMSCKASGYTFTSYNMHWVKQTPGQGLEWIGYIYPGNGATNYNQKFQGKATLTADTSSSTAYMQISSLTSEDSAVYFCARGDSVPFAYWGQGTLVTVSA VL: EIVLTQSPATMSASPGERVTITCSAHSSVSFMHWFQQKPGTSPKLWIYSTSSLASGVPARFGGSGSGTSYSLTISSMEAEDAATYYCQQRSSFPLTFGAGTKLELKR", "values": [{"measurement": "Kd", "setting": "[1]", "result": 3.71, "unit": "nM"}, {"measurement": "EC50", "setting": "[2]", "result": 37.1, "unit": "nM"}]}, {"binder": "DS6-SPP-MM1-202 taxoid conjugate (antibody, V domains shown, taxoid MM1-202 linked through the SSNPP linker, 2.86 drugs/antibody; positions not given, also called taxane-conjugated DS6 antibody) VH: QAYLQQSGAELVRSGASVKMSCKASGYTFTSYNMHWVKQTPGQGLEWIGYIYPGNGATNYNQKFKGKATLTADPSSSTAYMQISSLTSEDSAVYFCARGDSVPFAYWGQGTLVTVSA VL: QIVLTQSPAIMSASPGEKVTITCSAHSSVSFMHWFQQKPGTSPKLWIYSTSSLASGVPARFGGSGSGTSYSLTISRMEAEDAATYYCQQRSSFPLTFGAGTKLELKR", "values": [{"measurement": "Kd", "setting": "[3]", "result": 1.24, "unit": "nM"}]}, {"binder": "DS6 antibody-DM1 conjugate (antibody, V domains shown, DM1 linked through the SPP disulfide linker, DM1/Ab ratio 4.36; positions not given, also called DS6-DM1; immunoconjugate) VH: QAYLQQSGAELVRSGASVKMSCKASGYTFTSYNMHWVKQTPGQGLEWIGYIYPGNGATNYNQKFKGKATLTADPSSSTAYMQISSLTSEDSAVYFCARGDSVPFAYWGQGTLVTVSA VL: QIVLTQSPAIMSASPGEKVTITCSAHSSVSFMHWFQQKPGTSPKLWIYSTSSLASGVPARFGGSGSGTSYSLTISRMEAEDAATYYCQQRSSFPLTFGAGTKLELKR", "values": [{"measurement": "Clonogenic Assay Conjugate IC50 (M), BT-20 cells", "setting": "[4]", "result": "> 3e-09", "unit": "M"}, {"measurement": "Clonogenic Assay Conjugate IC50 (M), BT-483 cells", "setting": "[4]", "result": "1e-10", "unit": "M"}, {"measurement": "Clonogenic Assay Conjugate IC50 (M), Caov-3 cells", "setting": "[4]", "result": "8e-10", "unit": "M"}, {"measurement": "Clonogenic Assay Conjugate IC50 (M), Caov-4 cells", "setting": "[4]", "result": "> 3e-09", "unit": "M"}, {"measurement": "Clonogenic Assay Conjugate IC50 (M), HPAC cells", "setting": "[4]", "result": "1.8e-09", "unit": "M"}, {"measurement": "Clonogenic Assay Conjugate IC50 (M), HPAF-II cells", "setting": "[4]", "result": "> 3e-09", "unit": "M"}, {"measurement": "Clonogenic Assay Conjugate IC50 (M), HeLa cells", "setting": "[4]", "result": "1.8e-09", "unit": "M"}, {"measurement": "Clonogenic Assay Conjugate IC50 (M), Hs766T cells", "setting": "[4]", "result": "> 3e-09", "unit": "M"}, {"measurement": "Clonogenic Assay Conjugate IC50 (M), KB cells", "setting": "[4]", "result": "1.4e-09", "unit": "M"}, {"measurement": "Clonogenic Assay Conjugate IC50 (M), OVCAR5 cells", "setting": "[4]", "result": "> 3e-09", "unit": "M"}, {"measurement": "Clonogenic Assay Conjugate IC50 (M), T-47D cells", "setting": "[4]", "result": "> 3e-09", "unit": "M"}, {"measurement": "Clonogenic Assay Conjugate IC50 (M), TOV-21G cells", "setting": "[4]", "result": "2e-09", "unit": "M"}, {"measurement": "Clonogenic Assay Conjugate IC50 (M), WISH cells", "setting": "[4]", "result": "4.6e-10", "unit": "M"}, {"measurement": "MTT Assay Conjugate EC50 (M), BT-20 cells", "setting": "[4]", "result": "1.44e-08", "unit": "M"}, {"measurement": "MTT Assay Conjugate EC50 (M), Caov-3 cells", "setting": "[4]", "result": "1.61e-09", "unit": "M"}, {"measurement": "MTT Assay Conjugate EC50 (M), HPAC cells", "setting": "[4]", "result": "1.84e-09", "unit": "M"}, {"measurement": "MTT Assay Conjugate EC50 (M), HPAF-II cells", "setting": "[4]", "result": "1e-08", "unit": "M"}, {"measurement": "MTT Assay Conjugate EC50 (M), Hs766T cells", "setting": "[4]", "result": "> 3.2e-08", "unit": "M"}, {"measurement": "MTT Assay Conjugate EC50 (M), KB cells", "setting": "[4]", "result": "3.01e-09", "unit": "M"}, {"measurement": "MTT Assay Conjugate EC50 (M), OVCAR5 cells", "setting": "[4]", "result": "8.46e-07", "unit": "M"}, {"measurement": "MTT Assay Conjugate EC50 (M), TOV-21G cells", "setting": "[4]", "result": "6.88e-09", "unit": "M"}, {"measurement": "MTT Assay Conjugate EC50 (M), WISH cells", "setting": "[4]", "result": "6.69e-10", "unit": "M"}, {"measurement": "MTT Assay Conjugate EC50 (M), ZR-75-1 cells", "setting": "[4]", "result": "9.45e-10", "unit": "M"}, {"measurement": "Kd", "setting": "[5]", "result": 3.9, "unit": "nM"}]}, {"binder": "chimeric DS6 (antibody, V domains shown) VH: QAYLQQSGAELVRSGASVKMSCKASGYTFTSYNMHWVKQTPGQGLEWIGYIYPGNGATNYNQKFKGKATLTADPSSSTAYMQISSLTSEDSAVYFCARGDSVPFAYWGQGTLVTVSA VL: QIVLTQSPAIMSASPGEKVTITCSAHSSVSFMHWFQQKPGTSPKLWIYSTSSLASGVPARFGGSGSGTSYSLTISRMEAEDAATYYCQQRSSFPLTFGAGTKLELKR", "values": [{"measurement": "Kd", "setting": "[1]", "result": 3.15, "unit": "nM"}]}, {"binder": "biotinylated murine DS6 (antibody, V domains shown, biotinylated; positions not given, Murine DS6 IgG with biotin; also called biotin-muDS6; biotin-DS6) VH: QAYLQQSGAELVRSGASVKMSCKASGYTFTSYNMHWVKQTPGQGLEWIGYIYPGNGATNYNQKFKGKATLTADPSSSTAYMQISSLTSEDSAVYFCARGDSVPFAYWGQGTLVTVSA VL: QIVLTQSPAIMSASPGEKVTITCSAHSSVSFMHWFQQKPGTSPKLWIYSTSSLASGVPARFGGSGSGTSYSLTISRMEAEDAATYYCQQRSSFPLTFGAGTKLELKR", "values": [{"measurement": "Kd", "setting": "[6]", "result": 6.76, "unit": "nM"}, {"measurement": "Kd", "setting": "[7]", "result": 2.8, "unit": "nM"}]}, {"binder": "humanized DS6 antibody version 1.2 (antibody, human IgG1, V domains shown, The light chain is the same as in v1.0; also called huDS6 v1.2; v1.2) VH: QAQLQVSGAEVVKPGASVKMSCKASGYTFTSYNMHWVKQTPGQGLEWIGYIYPGNGATNYNQKFQGKATLTADPSSSTAYMQISSLTSEDSAVYFCARGDSVPFAYWGQGTLVTVSA VL: EIVLTQSPATMSASPGERVTITCSAHSSVSFMHWFQQKPGTSPKLWIYSTSSLASGVPARFGGSGSGTSYSLTISSMEAEDAATYYCQQRSSFPLTFGAGTKLELKR", "values": [{"measurement": "Kd", "setting": "[1]", "result": 4.2, "unit": "nM"}, {"measurement": "EC50", "setting": "[2]", "result": 22.6, "unit": "nM"}]}]}
